{"source": "paper PMC9754288", "target": "SAP11_(CaPm) from 'Ca. P. mali' strain STAA, split-YFP fusion for BiFC ('Candidatus Phytoplasma mali' strain STAA)", "experiment": "split reporter (BiFC, NanoBiT); BiFC with split YFP from pBiFC-2in1 vectors in Nicotiana benthamiana mesophyll protoplasts; confocal microscopy 16 h after transformation; RFP marks transformed protoplasts"}
{"substance": "MdTCP16, split-YFP fusion for BiFC (natural protein)", "values": [{"measurement": "percent of transformed protoplasts with a YFP signal", "result": "< 92.5", "unit": "%"}]}
